These results are taken from US20220112288A1 (published 2022).

To fix the notation:
B1: 75110_06D16A (antibody, V domains shown)
VH: QVQLQQWGAGLLKPSETLSLTCAVYGGSFSGYYWSWIRQPPGKGLEWIGEINHSGSTNYNPSLKSRVTISVVTSKNQFSLKLSSVTAADTAVYYCARVLNWFDPWGQGTLVTVSS
VL: DIQMTQSPSSVSASVGDRVTITCRASQDIADWLAWYQQKPGKAPKLLIYAASSFQSGVPSRFSGSGSGTDFTLTISSLQPEDFATYFCQQANSFPYTFGQGTKLEIK
notes: Tested as antibody purified from AlivaMab Mouse Kappa hybridoma (human V regions, kappa light chain, mouse Fc captured by anti-mouse Fc sensors)
B2: 75110_05L07A (antibody, V domains shown)
VH: EVQLVESGGGLVQPGGSLRLSCAASGFTFSSYWMSWVRQAPGKGLEWVANINQDGSDKYYVDSVKGRFTISRDNVKNSLYLQINSLRAEDTAVYYCAREGGQWLTLDYWGQGTLVTVSS
VL: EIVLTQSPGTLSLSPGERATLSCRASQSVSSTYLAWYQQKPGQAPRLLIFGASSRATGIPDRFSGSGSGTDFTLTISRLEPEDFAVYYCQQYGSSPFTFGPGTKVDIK
notes: as for B1
B3: 75110_06C16A (antibody, V domains shown)
VH: QVQLQESGPGLVTPSETLSLSCTVSGGSISDYYWSWIRQPGGKGLEWIGRIYSSGSTNYNPSLKSRVTMSVDTSKNQFSLKLSSVTAADTAVYFCARDREDYYYYGMDVWGQGTTVTVSS
VL: DIQMTQSPSSLSASVGDRVTITCQASHDISNYLNWYQQKPGKAPKLLIYAASNLETGVPSRFSGSGSGTDFSFTISSLQPEDIATYYCQQYDHLPLTFGGGTKVEIK
notes: as for B1
B4: 75110_06G04A (antibody, V domains shown)
VH: QVQLLESGPGLVKPSETLSLTCTVSGGSISSYYWSWIRQPAGKGLEWIGRIYISGSTNYNPSLKSRVTMSIDTSENQFSLNLSSVTAADTAVYYCARELERPYYYGMDVWGQGTTVTVSS
VL: B3 VL with H27Q, A50N, N53T, S72T, H93N, I106F
notes: as for B1
B5: 75110_06K03A (antibody, V domains shown)
VH: B4 VH with L5Q, S31T, Y52N, I53T, N58T, I71V, E75K, N81K, P102Y
VL: B3 VL with H27Q, A50Y, N53I, S72T, H93S
notes: as for B1
B6: 75110_08D24A (antibody, V domains shown)
VH: B3 VH with T13K, S21T, D31G, Y32F, G41A, S53T, G55E, S56N, F94Y, D101G
VL: B3 VL with H27Q, S72T, H93S, L96I, G100Q, K103R, V104L
notes: as for B1
B7: 75110_06E14A (antibody, V domains shown)
VH: B3 VH with T13K, S21T, D31N, Y33F, G41A, S56N, F94Y
VL: B3 VL with H27Q, A50G, N53I, S63T, S72T, H93S, L96I, G100Q, K103R, V104L
notes: as for B1
B8: 75110_08M20A (antibody, V domains shown)
VH: B3 VH with G8D, T13K, S21T, D31S, G41A, S53A, F94Y, D101G
VL: B3 VL with H27Q, N31K, K45N, S72T, T85A, H93S, L96I, G100Q, K103R, V104L
notes: as for B1
B9: 75110_08H11A (antibody, V domains shown)
VH: EVQLVESGGGLVQPGGSLRLSCAASGFTFSSYDMHWVRQATGKGLEWVSTIGTAGDTYYPGSVKGRFTISRENAKNSLYLQMNSLRAGDTAVYYCARGGYSYYGMDVWGQGTTVTVSS
VL: EIVLTQSPGTLSLSPGERATLSCGASQSVSSTYLAWYQQKPGQAPRLLIYGASSRATGIPDRFSGSGSGTDFTLTISRLEPEDFAVYYCQQFGSSPFTFGPGTKVDIK
notes: Tested as antibody purified from AlivaMab Mouse Kappa hybridoma (human V regions, kappa light chain, mouse Fc captured by anti-mouse Fc sensors); also called 75110_08H1lA
B10: 75110_08K12A (antibody, V domains shown)
VH: B9 VH with K75E, V92L, G99D, S101Y
VL: B9 VL with G24R, S54N, S94T
notes: as for B1
B11: 75110_14H13A (antibody, V domains shown)
VH: B9 VH with S31N, E72K, N83I, Y100D, S101Y
VL: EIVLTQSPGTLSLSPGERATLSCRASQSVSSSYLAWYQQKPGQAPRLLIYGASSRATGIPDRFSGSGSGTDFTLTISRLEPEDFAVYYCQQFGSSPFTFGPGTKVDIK
notes: as for B1
B12: 75110_08H06A (antibody, V domains shown)
VH: B9 VH with S31N, S101D
VL: B9 VL with G24R, V29I, S30T, T32I, Q38R, F92Y
notes: as for B1
B13: 75110_10O16A (antibody, V domains shown)
VH: B9 VH with S31N, Y32S, Y100L, S101Y
VL: B9 VL with I2N, G24R, T32S, Q90H
notes: Tested as antibody purified from AlivaMab Mouse Kappa hybridoma (human V regions, kappa light chain, mouse Fc captured by anti-mouse Fc sensors); also called 75110_10016A
B14: 75110_05K11A (antibody, V domains shown)
VH: B9 VH with A40P, G61A, Y100F, S101Y
VL: B9 VL with A19V, G24R, S31N, A85V, F92H
notes: as for B1
B15: 75110_13C07A (antibody, V domains shown)
VH: B9 VH with G10V, S31N, I69L, N83H, G99A, S101G
VL: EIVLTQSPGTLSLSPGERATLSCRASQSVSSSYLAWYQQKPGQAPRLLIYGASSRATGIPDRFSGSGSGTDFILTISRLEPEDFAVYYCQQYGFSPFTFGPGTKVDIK
notes: as for B1
B16: 75110_07E04A (antibody, V domains shown)
VH: B9 VH with A24V, N76K, S77F, S101Y
VL: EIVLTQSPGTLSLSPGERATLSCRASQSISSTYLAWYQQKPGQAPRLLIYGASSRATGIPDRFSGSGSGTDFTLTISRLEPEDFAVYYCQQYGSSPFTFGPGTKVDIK
notes: as for B1
B17: 75110_10L22A (antibody, V domains shown)
VH: B9 VH with S84G, G99N, S101F, M105V
VL: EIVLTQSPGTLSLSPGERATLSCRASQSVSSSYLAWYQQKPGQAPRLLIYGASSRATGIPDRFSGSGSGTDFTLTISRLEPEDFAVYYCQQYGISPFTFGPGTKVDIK
notes: as for B1
B18: 75110_10N21A (antibody, V domains shown)
VH: B9 VH with A40V, S101Y
VL: B9 VL with G24R, V29F, S30I, T32S, E80D, F92S, S94N, I107V
notes: as for B1

Positions count from the first letter of the chain named. Bounds are passed on as bounds.

For the assay, the target named is T1, Recombinant human CD4 (R&D Systems, Cat. 10327-CD) (human, UniProt P01730 26-390, limits assumed).
T1 construct: Bought protein; also called huCD4
Briefly: BLI (Octet Red384), purified antibody on anti-mouse Fc sensors, human CD4 100/50/25 nM, global 1:1 fit.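 Note: antibodies loaded at 10 µg/mL, curves fitted across association and dissociation phases, with an unrelated mouse-derived antibody serving as internal reference control.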
Turning to B1, the Kd was found to be 2.8 nM, the Response turned out to be 0.25, the off-rate (koff) came out at 0.00028 s⁻¹ and the association rate constant (kon) was 100000 M⁻¹ s⁻¹.
The like results for B2 were, in that order, 15 nM, 0.28, 0.0016 s⁻¹ and 110000 M⁻¹ s⁻¹.
Regarding B3, the Kd was 16 nM, the Response was 0.15, the off-rate (koff) came to 0.0012 s⁻¹ and the on-rate (kon) turned out to be 75000 M⁻¹ s⁻¹.
Turning to B4, the Kd was 6 nM, the Response came out at 0.07, the koff stood at 0.0015 s⁻¹ and the kon was determined as 250000 M⁻¹ s⁻¹.
In the same order, the values of B5 are 2.2 nM, 0.11, 3.6e-05 s⁻¹ and 16000 M⁻¹ s⁻¹.
B6: the equilibrium dissociation constant (Kd) was found to be 22 nM, the Response was determined as 0.11, the koff worked out at 0.00027 s⁻¹ and the kon was 12000 M⁻¹ s⁻¹.
The like results for B7 were, in that order, 14 nM, 0.11, 0.00026 s⁻¹ and 18000 M⁻¹ s⁻¹.
On to B8, for which the dissociation constant (Kd) worked out at 9.2 nM, the Response came to 0.16, the off-rate (koff) amounted to 0.00091 s⁻¹ and the kon amounted to 99000 M⁻¹ s⁻¹.
For the molecule B9, the dissociation constant (Kd) stood at 26 nM, the Response was found to be 0.04, the koff was found to be 3.6e-05 s⁻¹ and the kon stood at 1400 M⁻¹ s⁻¹.
For the molecule B10, the equilibrium dissociation constant (Kd) is 220 nM, the Response was 0.05 and the off-rate constant (koff) is 0.00022 s⁻¹.
For the molecule B11, the Kd is 2.1 nM, the Response was 0.08, the koff came out at 0.00011 s⁻¹ and the kon amounted to 54000 M⁻¹ s⁻¹.
In the same order, the values of B12 are 11 nM, 0.04, 0.00043 s⁻¹ and 39000 M⁻¹ s⁻¹.
The like results for B13 were, in that order, 2.4 nM, 0.08, 0.00035 s⁻¹ and 140000 M⁻¹ s⁻¹.
As to B14, the Kd is below 0.001 nM, the Response was 0.04, the off-rate constant (koff) is below 1e-07 s⁻¹ and the on-rate (kon) is 36000 M⁻¹ s⁻¹.
With B15, the dissociation constant (Kd) worked out at 1.7 nM, the Response is 0.11, the koff is 0.00016 s⁻¹ and the kon was found to be 92000 M⁻¹ s⁻¹.
In the same order, the values of B16 are below 0.001 nM, 0.07, below 1e-07 s⁻¹ and 35000 M⁻¹ s⁻¹.
The like results for B17 were, in that order, 12 nM, 0.03, 0.00045 s⁻¹ and 37000 M⁻¹ s⁻¹.
In the same order, the values of B18 are 0.59 nM, 0.09, 3.2e-05 s⁻¹ and 55000 M⁻¹ s⁻¹.

By Kd is commonly meant the equilibrium constant for the complex coming apart. The term koff denotes the rate constant with which the complex falls apart. Broadly, the kon is the second-order rate constant of association.
